Results taken from US20110262929A1 (FORERUNNER PHARMA RESEARCH, published 2011).

T1: GST_HS6ST2_C1 (human, UniProt Q96MM7 454-539)
T1 construct: Expressed in E. coli BL21 (DE3); whole cell lysate blotted after SDS-PAGE; also called GST fusion of amino acids 308-393 of HS6ST2_N-short; not shown: N-terminal glutathione S-transferase (GST) of vector pGEX-6P-1, with the vector's linker
T1 sequence: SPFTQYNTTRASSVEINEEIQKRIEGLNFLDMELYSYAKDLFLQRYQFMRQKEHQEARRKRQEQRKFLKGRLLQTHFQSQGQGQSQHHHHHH

T2: secreted HS6ST2 (sHS6ST2_FLAG) (human, UniProt Q96MM7 170-605)
T2 construct: Purified from CHO supernatant on anti-FLAG gel; also called soluble HS6ST2
T2 sequence: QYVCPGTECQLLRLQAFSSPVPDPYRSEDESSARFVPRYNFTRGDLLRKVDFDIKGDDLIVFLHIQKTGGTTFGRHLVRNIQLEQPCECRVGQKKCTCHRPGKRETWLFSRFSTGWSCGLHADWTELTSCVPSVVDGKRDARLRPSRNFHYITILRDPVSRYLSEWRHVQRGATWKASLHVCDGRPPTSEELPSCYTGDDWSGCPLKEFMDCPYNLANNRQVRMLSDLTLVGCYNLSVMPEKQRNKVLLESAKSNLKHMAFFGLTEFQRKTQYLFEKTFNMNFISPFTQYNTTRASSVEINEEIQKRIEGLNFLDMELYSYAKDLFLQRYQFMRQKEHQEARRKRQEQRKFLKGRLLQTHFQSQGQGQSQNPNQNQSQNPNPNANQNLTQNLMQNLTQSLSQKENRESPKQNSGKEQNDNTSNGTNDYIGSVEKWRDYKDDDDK

T3: GST_HS6ST2_C2 (human, UniProt Q96MM7 525-605)
T3 construct: Expressed in E. coli BL21 (DE3); whole cell lysate blotted after SDS-PAGE; also called GST fusion of amino acids 379-459 of HS6ST2_N-short; not shown: N-terminal glutathione S-transferase (GST) of vector pGEX-6P-1, with the vector's linker
T3 sequence: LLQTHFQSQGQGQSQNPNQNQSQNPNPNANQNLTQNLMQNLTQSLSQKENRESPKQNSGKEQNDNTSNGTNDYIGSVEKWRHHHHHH


Columns and labels:
[1] = target: T1, GST_HS6ST2_C1; assay: Western blot of E. coli whole cell lysate, antibody 10 µg/mL
Protocol: (§1) GST_HS6ST2_N, GST_HS6ST2_mid, GST_HS6ST2_C, GST_HS6ST2_C1 and GST_HS6ST2_C2 were expressed in BL21 (DE3) Competent Cells (Takara Bio), and the whole cell lysates were resolved by SDS-PAGE electrophoresis and then transferred to PVDF membranes (Immobilon-P, Millipore) and Western blotted with the anti-HS6ST2 antibodies. The anti-HS6ST2 antibodies were used at 10 μg/mL, while the secondary antibody (HRP-anti mIgG, GE Healthcare) was used as a 3000-fold dilution, and blots were detected with ECL Western Blotting Detection Reagents (GE Healthcare). As a result, the anti-HS6ST2 antibodies A1, A10, B5, B6 and C8 bound to GST_HS6ST2_C2, A6 bound to GST_HS6ST2_C1, and C10 bound to GST_HS6ST2_N.

[2] = target: T2, secreted HS6ST2 (sHS6ST2_FLAG); assay: sandwich ELISA: A6 coated at 5 µg/mL as capture, B5-biotin and C8-biotin (3 µg/mL each, mixed) as detectors
[3] = target: T3, GST_HS6ST2_C2; assay: Western blot of E. coli whole cell lysate, antibody 10 µg/mL
Protocol: as §1

[4] = target: T2, secreted HS6ST2 (sHS6ST2_FLAG); assay: flow cytometry: sHS6ST2_FLAG (50 µg/mL) held on heparan sulfate of DG44 cells, detected with C8 as primary antibody
Protocol: Each anti-HS6ST2 antibody or mouse IgG1 (mIgG1, BD Biosciences Pharmingen) as a negative control was added to a final concentration of 2 μg/mL into 96-well U-bottom plates (Becton Dickinson) containing 5×10⁴ cells suspended in PBS (FACS buffer) supplemented with 0.5% bovine serum albumin and 0.1% NaN₃. After reaction on ice for 1 hour, the cells were washed with FACS buffer. Then, an FITC-labeled anti-mouse antibody (Goat F(ab′)₂ Fragment Anti-mouse IgG (H+L)-FITC, Beckman Coulter) was added as a secondary antibody, and the mixture was reacted on ice for 1 hour. The cells were washed with FACS buffer, and then suspended in FACS buffer containing 10 μg/mL propidium iodide (PI) (Sigma) and assayed by a flow cytometer (FACS Calibur, Becton Dickinson). The assay data were analyzed by CELLQuest software (Becton Dickinson), and the geo-mean of FITC fluorescent intensity was calculated for the PI-negative population of viable cells.
Then, binding of soluble HS6ST2 (sHS6ST2_FLAG) to DG44 cells was evaluated. DG44 cells were enzymatically treated, and then reacted with sHS6ST2_FLAG prepared at 50 μg/mL in FACS buffer at 4° C. for 3 hours. After washing, the cells were analyzed by flow cytometry in the same manner as in Example 3. The anti-HS6ST2 antibody C8 was used as a primary antibody and mIgG1 (BD Biosciences Pharmingen) was used as a negative control. […]

| binding result [1] | binding result [2] | binding result [3] | binding result [4] | Binder |
| --- | --- | --- | --- | --- |
| binds | binds | – | – | anti-HS6ST2 antibody A6 (antibody, mouse IgG1, V domains shown, also called clone A6) VH: EVQLQQSGAELVRSGASVKLSCTASGFNIKDYYMHWVKQRPEQGLEWIGWIDPENDDTEYAPKFQGRATMTADTSSNTAYLQLSSLTSEDTAVYYCNAGYYGSGFAYWGQGTLVTVSA VL: DIVMTQSPSSLTVTAGEKVTMRCKSSQSLLNSGNQKNYLTWYQQKPGQPPRLLIYWASIRESGVPDRFTGSGSGTDFTLTISSVQAEDLAVYYCQNDYSYPLTFGTGTKLELK |
| – | – | binds | binds | anti-HS6ST2 antibody C8 (antibody, mouse IgG1, V domains shown, also called clone C8; C8-biotin) VH: EVQLQQSGAELVRSGASVKLSCTASGFNIKDYYMHWVKQRPEQGLEWIGWIDPDNDDTEYAPKFQGKATMTADTSSNTAYLQLSSLTSEDTAVYYCNAGNGNYWFAYWGQGTLVTVSA VL: DVVMTQTPLSLPVSLGDQASISCRSSQSLVHSNGNTYLHWNLQKPGQSPKLLIYKVSNRFSGVPDRFSGSGSGTDFTLKISRVEAEDLGVYFCSQTTLVPYTFGGGTKLEIK |
